{"source": "patent US20170313754A1", "about": "(PROTAGONIST THERAPEUTICS, published 2017)", "binders": {"B1": {"name": "Isovaleric acid-DTHFPCIKFKPHSKEWVCE-NH2 (peptide)", "peptide": "Isovaleryl-DTHFPCIKFKPHSKEWVCE-NH2", "modifications": "disulfide 6-18 (inferred)"}, "B2": {"name": "Hy-DTHFPCIEY-NH2 (peptide)", "peptide": "H-DTHFPCIEY-NH2"}, "B3": {"name": "Hy-DTHFPCIIFGGPRSKGWNCK-NH2 (peptide)", "peptide": "H-DTHFPCIIFGGPRSKGWNCK-NH2", "modifications": "not fully specified (bridges); printed as Hy-DTHFPCIIFGGPRSKGWNCK-NH2; cysteine pairing not given here"}, "B4": {"name": "Hy-DTHFPICIFGPHRSKGWVCM-NH2 (peptide)", "peptide": "H-DTHFPICIFGPHRSKGWVCM-NH2", "modifications": "disulfide 7-19 (inferred)"}, "B5": {"name": "Hy-DTHFPCIIFGPRSKGWVAC-NH2 (peptide)", "peptide": "H-DTHFPCIIFGPRSKGWVAC-NH2", "modifications": "not fully specified (bridges); printed as Hy-DTHFPCIIFGPRSKGWVAC-NH2; cysteine pairing not given here"}, "B6": {"name": "Isovaleric acid-DTHFPCIKFEPRSKEWVCK-OH (peptide)", "peptide": "Isovaleryl-DTHFPCIKFEPRSKEWVCK-OH", "modifications": "not fully specified (bridges); cysteine pairing not given here"}, "B7": {"name": "Hy-DTHFPCIIFGPRSRGHVCK-NH2 (peptide)", "peptide": "H-DTHFPCIIFGPRSRGHVCK-NH2", "modifications": "not fully specified (bridges); printed as Hy-DTHFPCIIFGPRSRGHVCK-NH2; cysteine pairing not given here"}, "B8": {"name": "Hy-DTHFPCIDFGPRSKGWVCK-NH2 (peptide)", "peptide": "H-DTHFPCIDFGPRSKGWVCK-NH2", "modifications": "disulfide 6-18 (inferred)"}, "B9": {"name": "Isovaleric acid-DTHFPCIIFEPRSKHWVCK-NH2 (peptide)", "peptide": "Isovaleryl-DTHFPCIIFEPRSKHWVCK-NH2", "modifications": "disulfide 6-18 (inferred)"}, "B10": {"name": "Isovaleric acid-DTHFPCIIFGPRSKG-[N-MeTrp]-VC-NH2 (peptide)", "peptide": "Isovaleryl-DTHFPCIIFGPRSKG[NMeW]VC-NH2", "modifications": "disulfide 6-18 (inferred)"}, "B11": {"name": "Isovaleric acid-DTHFPCIIF-[Sarc]-PHSKG-[N-MeTrp]-VC-NH2 (peptide)", "peptide": "DTHFPCIIFXPHSKGWVC", "modifications": "N-terminal isovaleric acid; Sarc at position 10; N-MeTrp at position 16; C-terminal amide"}, "B12": {"name": "Isovaleric acid-DTHFPCIIF-[PEG3]-C-NH2 (peptide)", "peptide": "Isovaleryl-DTHFPCIIF[PEG3′]C-NH2", "modifications": "cysteine pairing not given here"}, "B13": {"name": "Isovaleric acid-DTHFPCIIFEPRSKLWVCK-NH2 (peptide)", "peptide": "Isovaleryl-DTHFPCIIFEPRSKLWVCK-NH2", "modifications": "disulfide 6-18 (inferred)"}, "B14": {"name": "Isovaleric acid-DTHFPCIIF-[Sarc]-PRSKG-[N-MeTrp]-VC-NH2 (peptide)", "peptide": "DTHFPCIIFXPRSKGWVC", "modifications": "N-terminal isovaleric acid; Sarc at position 10; N-MeTrp at position 16; C-terminal amide"}, "B15": {"name": "Hy-DTHFPCINFGPRSKGWVCK-NH2 (peptide)", "peptide": "H-DTHFPCINFGPRSKGWVCK-NH2", "modifications": "disulfide 6-18 (inferred)"}, "B16": {"name": "Isovaleric acid-DTHFPCIKFEPRSKEWVCK-NH2 (peptide)", "peptide": "Isovaleryl-DTHFPCIKFEPRSKEWVCK-NH2", "modifications": "disulfide 6-18 (inferred)"}, "B17": {"name": "Isovaleric acid-DTHFPCIKFEPRSKLWVCK-NH2 (peptide)", "peptide": "Isovaleryl-DTHFPCIKFEPRSKLWVCK-NH2", "modifications": "disulfide 6-18 (inferred)"}, "B18": {"name": "Isovaleric acid-DTHFECIIFGPRSKGWVCK-NH2 (peptide)", "peptide": "Isovaleryl-DTHFECIIFGPRSKGWVCK-NH2", "modifications": "not fully specified (bridges); cysteine pairing not given here"}, "B19": {"name": "Hy-DTHFPCIIFGPRSKGWNCK-NH2 (peptide)", "peptide": "H-DTHFPCIIFGPRSKGWNCK-NH2", "modifications": "not fully specified (bridges); printed as Hy-DTHFPCIIFGPRSKGWNCK-NH2; cysteine pairing not given here"}, "B20": {"name": "Hy-DTHFPCIIFGPRSKGWVACY-NH2 (peptide)", "peptide": "H-DTHFPCIIFGPRSKGWVACY-NH2", "modifications": "not fully specified (bridges); printed as Hy-DTHFPCIIFGPRSKGWVACY-NH2; cysteine pairing not given here"}, "B21": {"name": "Hy-DTHFPCIIFGPRSKGWAVCYW-NH2 (peptide)", "peptide": "H-DTHFPCIIFGPRSKGWAVCYW-NH2", "modifications": "not fully specified (bridges); printed as Hy-DTHFPCIIFGPRSKGWAVCYW-NH2; cysteine pairing not given here"}, "B22": {"name": "Isovaleric acid-DTHFPCIIFEPRSKFWVCK-NH2 (peptide)", "peptide": "Isovaleryl-DTHFPCIIFEPRSKFWVCK-NH2", "modifications": "disulfide 6-18 (inferred)"}, "B23": {"name": "Isovaleric acid-DTHFPCIKFEPHSK-[Sarc]-CK-NH2 (peptide)", "peptide": "Isovaleryl-DTHFPCIKFEPHSK[Sar]CK-NH2", "modifications": "not fully specified (bridges); cysteine pairing not given here"}, "B24": {"name": "Isovaleric acid-DTHFPCIIFEPRSKEWVCK-NH2 (peptide)", "peptide": "Isovaleryl-DTHFPCIIFEPRSKEWVCK-NH2", "modifications": "disulfide 6-18 (inferred)"}, "B25": {"name": "Isovaleric acid-DTHFPCIFEPRSKGTCK-NH2 (peptide)", "peptide": "Isovaleryl-DTHFPCIFEPRSKGTCK-NH2", "modifications": "disulfide 6-16 (inferred)"}, "B26": {"name": "Hy-DTHFP-[(D)Cys]-IIFGPRSKGWVA-[(D)Cys]-NH2 (peptide)", "peptide": "H-DTHFP[dC]IIFGPRSKGWVA[dC]-NH2", "modifications": "disulfide 6-19 (inferred)"}, "B27": {"name": "Hy-DTHFPCIIFGGPRSKGWDCK-NH2 (peptide)", "peptide": "H-DTHFPCIIFGGPRSKGWDCK-NH2", "modifications": "disulfide 6-19 (inferred)"}, "B28": {"name": "Hy-DTHFPCIIFGGPRSRGWVCK-NH2 (peptide)", "peptide": "H-DTHFPCIIFGGPRSRGWVCK-NH2", "modifications": "not fully specified (bridges); printed as Hy-DTHFPCIIFGGPRSRGWVCK-NH2; cysteine pairing not given here"}}, "molecular_target": "T1, human ferroportin (SLC40A1) fused in frame with GFP, stably expressed in HEK293 cells (human, UniProt Q9NP59 1-571)", "T1 sequence (looked up)": "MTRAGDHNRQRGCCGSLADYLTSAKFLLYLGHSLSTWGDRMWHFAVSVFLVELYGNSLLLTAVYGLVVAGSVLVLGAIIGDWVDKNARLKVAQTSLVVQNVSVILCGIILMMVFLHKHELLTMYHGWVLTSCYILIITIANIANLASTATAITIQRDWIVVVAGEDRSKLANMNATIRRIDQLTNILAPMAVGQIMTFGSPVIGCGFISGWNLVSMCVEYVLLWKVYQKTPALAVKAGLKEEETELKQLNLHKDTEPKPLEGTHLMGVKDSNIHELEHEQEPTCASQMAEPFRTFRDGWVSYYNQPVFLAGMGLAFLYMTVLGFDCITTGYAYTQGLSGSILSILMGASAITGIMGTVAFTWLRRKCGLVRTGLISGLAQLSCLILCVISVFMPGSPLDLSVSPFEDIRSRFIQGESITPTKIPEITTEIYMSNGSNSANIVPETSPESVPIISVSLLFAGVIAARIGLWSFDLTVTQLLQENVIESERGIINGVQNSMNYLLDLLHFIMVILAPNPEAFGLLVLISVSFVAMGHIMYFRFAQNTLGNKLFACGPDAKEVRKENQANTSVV", "assay": "cell-based or functional assay", "note": "Bridge positions count the residues as written; N and C are the ends. Square brackets hold non-standard residues; d marks the D form. Primed or numbered codes have the meaning given here. * marks the point of attachment. PEG3′ = NH2CH2CH2(OCH2CH2)3CH2CH2CO2H (PEG3 linker); NMeW = CN[C@@H](Cc1c[nH]c2ccccc12)C(=O)O; Isovaleryl = CC(C)CC(=O)*; Sar = CNCC(=O)O", "data": [{"binder": "B1", "values": [{"measurement": "Potency EC50 (nM), ferroportin-GFP internalization/degradation", "value": 46, "unit": "nM"}]}, {"binder": "B2", "values": [{"measurement": "Potency: percent at the stated concentration, ferroportin-GFP internalization/degradation", "value": 8, "unit": "% at 1 uM"}]}, {"binder": "B3", "values": [{"measurement": "Potency EC50 (nM), ferroportin-GFP internalization/degradation", "value": 404, "unit": "nM"}]}, {"binder": "B4", "values": [{"measurement": "Potency EC50 (nM), ferroportin-GFP internalization/degradation", "value": 149, "unit": "nM"}]}, {"binder": "B5", "values": [{"measurement": "Potency EC50 (nM), ferroportin-GFP internalization/degradation", "value": 281, "unit": "nM"}]}, {"binder": "B6", "values": [{"measurement": "Potency EC50 (nM), ferroportin-GFP internalization/degradation", "value": 46, "unit": "nM"}]}, {"binder": "B7", "values": [{"measurement": "Potency EC50 (nM), ferroportin-GFP internalization/degradation", "value": "> 1000", "unit": "nM"}]}, {"binder": "B8", "values": [{"measurement": "Potency EC50 (nM), ferroportin-GFP internalization/degradation", "value": "> 1000", "unit": "nM"}]}, {"binder": "B9", "values": [{"measurement": "Potency EC50 (nM), ferroportin-GFP internalization/degradation", "value": 15, "unit": "nM"}]}, {"binder": "B10", "values": [{"measurement": "Potency EC50 (nM), ferroportin-GFP internalization/degradation", "value": 32, "unit": "nM"}]}, {"binder": "B11", "values": [{"measurement": "Potency EC50 (nM), ferroportin-GFP internalization/degradation", "value": 9, "unit": "nM"}]}, {"binder": "B12", "values": [{"measurement": "Potency EC50 (nM), ferroportin-GFP internalization/degradation", "value": 157, "unit": "nM"}]}, {"binder": "B13", "values": [{"measurement": "Potency EC50 (nM), ferroportin-GFP internalization/degradation", "value": 7, "unit": "nM"}]}, {"binder": "B14", "values": [{"measurement": "Potency EC50 (nM), ferroportin-GFP internalization/degradation", "value": 10, "unit": "nM"}]}, {"binder": "B15", "values": [{"measurement": "Potency EC50 (nM), ferroportin-GFP internalization/degradation", "value": "> 1000", "unit": "nM"}]}, {"binder": "B16", "values": [{"measurement": "Potency EC50 (nM), ferroportin-GFP internalization/degradation", "value": 20, "unit": "nM"}]}, {"binder": "B17", "values": [{"measurement": "Potency EC50 (nM), ferroportin-GFP internalization/degradation", "value": 9, "unit": "nM"}]}, {"binder": "B18", "values": [{"measurement": "Potency EC50 (nM), ferroportin-GFP internalization/degradation", "value": "> 1000", "unit": "nM"}]}, {"binder": "B19", "values": [{"measurement": "Potency EC50 (nM), ferroportin-GFP internalization/degradation", "value": "> 1000", "unit": "nM"}]}, {"binder": "B20", "values": [{"measurement": "Potency EC50 (nM), ferroportin-GFP internalization/degradation", "value": "> 10000", "unit": "nM"}]}, {"binder": "B21", "values": [{"measurement": "Potency EC50 (nM), ferroportin-GFP internalization/degradation", "value": 197, "unit": "nM"}]}, {"binder": "B22", "values": [{"measurement": "Potency EC50 (nM), ferroportin-GFP internalization/degradation", "value": 10, "unit": "nM"}]}, {"binder": "B23", "values": [{"measurement": "Potency EC50 (nM), ferroportin-GFP internalization/degradation", "value": 28, "unit": "nM"}]}, {"binder": "B24", "values": [{"measurement": "Potency EC50 (nM), ferroportin-GFP internalization/degradation", "value": 19, "unit": "nM"}]}, {"binder": "B25", "values": [{"measurement": "Potency EC50 (nM), ferroportin-GFP internalization/degradation", "value": 57, "unit": "nM"}]}, {"binder": "B26", "values": [{"measurement": "Potency EC50 (nM), ferroportin-GFP internalization/degradation", "value": "> 10000", "unit": "nM"}]}, {"binder": "B27", "values": [{"measurement": "Potency EC50 (nM), ferroportin-GFP internalization/degradation", "value": 679, "unit": "nM"}]}, {"binder": "B28", "values": [{"measurement": "Potency EC50 (nM), ferroportin-GFP internalization/degradation", "value": 520, "unit": "nM"}]}]}
